Data reported in article PMC13247719.
Residue numbers refer to the chain shown, from its start. Where two headings read alike, the source gives them in different places.

T1: LIN28A I167A (mouse, UniProt Q8K3Y3 1-209, I167A)
T1 sequence: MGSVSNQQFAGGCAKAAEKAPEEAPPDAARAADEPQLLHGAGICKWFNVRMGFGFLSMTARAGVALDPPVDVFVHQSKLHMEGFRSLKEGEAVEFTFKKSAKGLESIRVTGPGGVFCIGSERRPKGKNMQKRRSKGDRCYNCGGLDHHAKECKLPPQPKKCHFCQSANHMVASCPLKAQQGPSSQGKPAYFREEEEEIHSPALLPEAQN

T2: LIN28A Y140A (mouse, UniProt Q8K3Y3 1-209, Y140A)
T2 sequence: T1 sequence with Y140A, A167I

T3: LIN28A H162A (mouse, UniProt Q8K3Y3 1-209, H162A)
T3 sequence: T1 sequence with H162A, A167I

T4: LIN28A H148A (mouse, UniProt Q8K3Y3 1-209, H148A)
T4 sequence: T1 sequence with H148A, A167I

T5: LIN28A CSD (mouse, UniProt Q8K3Y3 16-136)
T5 sequence: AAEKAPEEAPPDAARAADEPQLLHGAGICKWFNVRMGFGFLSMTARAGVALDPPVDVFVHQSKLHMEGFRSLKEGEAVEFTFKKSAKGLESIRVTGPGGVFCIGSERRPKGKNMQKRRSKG

T6: LIN28A (mouse, UniProt Q8K3Y3 1-209)
T6 sequence: T1 sequence with A167I


Columns and labels:
Test in all cases: SPR
LIN28A I167A = target: T1, LIN28A I167A
LIN28A Y140A = target: T2, LIN28A Y140A
LIN28A H162A = target: T3, LIN28A H162A
LIN28A H148A = target: T4, LIN28A H148A
LIN28A CSD = target: T5, LIN28A CSD
LIN28A [1] = target: T6, LIN28A
LIN28A [2] = target: T6, LIN28A; remark: listed apart in the source

| Binder | Kd (LIN28A I167A) [nM] | Kd (LIN28A Y140A) [nM] | Kd (LIN28A H162A) [nM] | Kd (LIN28A H148A) [nM] | Kd (LIN28A CSD) [nM] | Kd (LIN28A [1]) [nM] | Kd (LIN28A [2]) [nM] |
| --- | --- | --- | --- | --- | --- | --- | --- |
| GGGGUAGUGAUUUUACCCUGUUUAGGAGAU (structured_RNA) [preE-let-7f-1 biotin] | 99.5 | 410 | 382 | 276 | 808 | 92 |  |
| GGGGUAGUGAUUUUACCCUGUUUAUGAGAU (structured_RNA) [preE-let-7f-1 UGAG] |  |  |  |  |  |  | 387 |
